{"source": "patent US20110053195", "key": {"[1]": {"system": "xylanase inhibitors present in wheat extract (WE)"}, "[2]": {"system": "Wheat xylanase inhibitors WXI11.5, eluted from the Xy1A1A affinity column with 50% ethylene glycol pH 11.5"}}}
{"substance": "Pichia pastoris produced Xy1A1A_E79A inactive xylanase", "values": [{"measurement": "recovery of xylanase activity (azo-WAXY, A595) of added Xy1A1A in wheat flour extract", "setting": "[1]", "result": "Of the 24 isolates tested, 9 showed recovery of xylanase activity"}, {"measurement": "% Residual Activity of Avizyme 1310 with WXI pH11.5 (0.58 µg/ml) and XylA1A E79A (100 µg/ml)", "setting": "[2]", "result": 121, "unit": "%"}, {"measurement": "% Residual Activity of XylA1A with WXI pH11.5 (0.58 µg/ml) and XylA1A E79A (100 µg/ml)", "setting": "[2]", "result": 96.1, "unit": "%"}, {"measurement": "Xylanase Activity (umol/min/mg) of Avizyme 1310 with WXI pH11.5 (0.58 µg/ml) and XylA1A E79A (100 µg/ml)", "setting": "[2]", "result": 6880, "unit": "µmol/min/mg"}, {"measurement": "Xylanase Activity (umol/min/mg) of XylA1A with WXI pH11.5 (0.58 µg/ml) and XylA1A E79A (100 µg/ml)", "setting": "[2]", "result": 4420, "unit": "µmol/min/mg"}]}
